Experimental findings from publication PMC10694668 (The Journal of Biological Chemistry, 2023) are described below.

B1: Vkg NC1 domain of the tissue-extracted (endogenous) NC1 hexamer (domain or fragment, Drosophila (endogenous in fly pellet))
chain: APKSRGFIFARHSQSVHVPQCPANTNLLWEGYSLSGNVAASRAVGQDLGQSGSCMMRFTTMPYMLCDITNVCHFAQNNDDSLWLSTAEPMPMTMTPIQGRDLMKYISRCVVCETTTRIIALHSQSMSIPDCPGGWEEMWTGYSYFMSTLDNVGGVGQNLVSPGSCLEEFRAQPVIECHGHGRCNYYDALASFWLTVIEEQDQFVQPRQQTLKADFTSKISRCTVCRRRGN
modifications: sulfilimine cross-links in the tissue-extracted hexamer
notes: collagen IV Vkg (Viking) chain of Drosophila, NC1 domain set free by collagenase; NC1 numbering starts at residue 1511 of Q9VMV5; peptides of the tail after the NC1 domain were not detected; Fly Pellet, DGRC Stock 1661280; also called Viking; Vkg chain; source: purified from Drosophila pellet (collagenase treatment; SEC, Q-sepharose, hydroxyapatite)
B2: Vkg NC1 domain as it stands in the single-chain CVC trimer (domain or fragment, Drosophila)
chain: B1 chain
notes: collagen IV Vkg (Viking) chain of Drosophila, NC1 domain; NC1 numbering starts at residue 1511 of Q9VMV5; Not a free chain: joined on both sides to Cg25c NC1 domains by GSSASSG linkers on the chain of m5; Made a molecule only for the pairs seen in the CVC crystal structure; source: expiCHO-S cells, as a part of the single-chain CVC trimer; purified (anti-FLAG resin, SEC)
B3: Cg25c NC1 domain of the tissue-extracted (endogenous) NC1 hexamer (domain or fragment, Drosophila (endogenous in fly pellet))
chain: LDYLTGILITRHSQSETVPACSAGHTELWTGYSLLYVDGNDYAHNQDLGSPGSCVPRFSTLPVLSCGQNNVCNYASRNDKTFWLTTNAAIPMMPVENIEIRQYISRCVVCEAPANVIAVHSQTIEVPDCPNGWEGLWIGYSFLMHTAVGNGGGGQALQSPGSCLEDFRATPFIECNGAKGTCHFYETMTSFWMYNLESSQPFERPQQQTIKAGERQSHVSRCQVCMKNSS
modifications: sulfilimine cross-links in the tissue-extracted hexamer
notes: collagen IV Cg25c chain of Drosophila, NC1 domain set free by collagenase; NC1 numbering starts at residue 1551 of P08120; Fly Pellet, DGRC Stock 1661280; also called Cg25c chain; source: purified from Drosophila pellet (collagenase treatment; SEC, Q-sepharose, hydroxyapatite)
B4: Cg25c NC1 domain as it stands in the single-chain CVC trimer (domain or fragment, Drosophila)
chain: B3 chain
notes: collagen IV Cg25c chain of Drosophila, NC1 domain; NC1 numbering starts at residue 1551 of P08120; Not a free chain: joined to the Vkg NC1 domain by GSSASSG linkers on the chain of m5 (it stands there twice; the first copy carries the N-terminal FLAG tag); Made a molecule only for the pairs seen in the CVC crystal structure; source: expiCHO-S cells, as a part of the single-chain CVC trimer; …

For data set [1], the target named is single-chain CVC NC1 trimer (Cg25c-Vkg-Cg25c NC1 domains on one chain, FLAG-tagged, without mEmerald) (Drosophila) (UniProt P08120). As to the kind of experiment: SEC; trimer peaks pooled, concentrated to ~10 mg/ml, kept at 4 °C for a month (legend: about 6 months) in tris-buffered saline; peaks also pooled and rerun in tris-buffered saline; trimer to hexamer.
The target in data set [2] is B3. Description: SEC; collagenase digest of Drosophila pellet; hexamer peak at 12.99 ml; then Q-sepharose and hydroxyapatite; single band of the sample not boiled cut out, trypsin or chymotrypsin digestion, MS/MS. The following applies: both partners purified.
Data set [3] deals with B4. As to the kind of experiment: crystal structure; recombinant CVC trimer, ~8.5 mg/ml, 0.1 M Na/K phosphate pH 6.5, 0.2 M NaCl, 26% PEG 1000, 22 °C; 1.75 Å; hexamer in the crystal. Particulars: both partners purified.
Data set [4] concerns the molecule itself. Description: crystal structure; tissue-extracted NC1 hexamer, ~3.5 mg/ml, 35% MPD, 0.1 M NaCl, 100 mM Hepes pH 7.5, 22 °C; 2.98 Å.
Data set [5] deals with the molecule itself. As to the kind of experiment: crystal structure; recombinant CVC trimer, ~8.5 mg/ml, 0.1 M Na/K phosphate pH 6.5, 0.2 M NaCl, 26% PEG 1000, 22 °C; 1.75 Å; hexamer in the crystal.

Molecule “single-chain CVC NC1 trimer (Cg25c-Vkg-Cg25c NC1 domains on one chain, FLAG-tagged, without mEmerald) (from UniProt P08120 1550-1779; Q9VMV5 1510-1739; P08120 1550-1779)” gave a percent in the hexamer peak in data set [1] of 25%.
With B1, in data set [2], the binding result is given as “binds”.
Turning to B2, the binding result in data set [3] is reported as “binds”.
As for B3, the binding result in data set [4] is recorded as “binds”.
As for B4, the binding result in data set [5] is “binds”.
